In the DeepSol protein solubility set:

Test: soluble on expression in E. coli; label from the status in PepcDB or PDB records
For “RVESLMTHRSDIIALDLDDPVDENLKKMIASGRSNFPVYERDLDDVIGIVSVKDVLAKLVESGKVDIRASVTKPLFAPEAITILKLLESFKETGMHIALITDEYGSVQGIITLHDILEAIVGDVRSLGEPEEEQI”, the “soluble on expression in E. coli” value was “not soluble”.
In the case of “RWETHVYRAVKDLLVGLGFTEVLQLVLTSPRLVEAAGFSSMAVEVLNPVQQEYSVLRPTLLITLLQTLRENQHRRKPVKVFEAGNAVYLEDGEPRDEEKLALGVLDEEAGFEDVQAPLYAVLRIMGVDFEVEEASHPMFMEGRTAAVKVGGERLGYIGEVKPEVLEAFGLEYPVAAAEISLEVLARWTSRT”, the “soluble on expression in E. coli” value is reported as “not soluble”.
In the case of “SAAAIAASALPGAFGRLVSVCSRSILASQGSGSASLWSASRRFNSQSASYPQGYVPKTSLSSPPWQEVVLPDPVEETRHHAEVVKRVNELIATGQYGRLFAVVHFASHQWKVTAEDLILIENELDIKCGERIRLEKVLLVGADNFTLLGKPLLRKELVRVEATVIEKTESWPKINMKFRKRKNFRKKKIIVNPQTILRINTIEIAPRLL”, the “soluble on expression in E. coli” value is reported as “soluble”.
With “SAATVPATTRSDQTWDFSCNLDVSFESEEHALIAYTSLAVDKELQPDKVRRVMSVSNNKLSVHFEAIEARLLRASFSAFVDVLTLATRTIQEFGQK” the “soluble on expression in E. coli” value was “soluble”.
With “SAAVGAEARGAWCVPCLVSLDTLQELCRKEKLTCKSIGITKRNLNNYEVEYLCDYKVVKDMEYYLVKWKGWPDSTNTWEPLQNLKCPLLLQQFSNDKHNYLSQVITSEEAERRGQFYDNKGITYLFDLDYESDEFTVDAARYGNVSHFVNHSCDPNLQVFNVFIDNLDTRLPRIALFSTRTINAGEELTFDYQMKGSGDISSDSIDHSPAKKRVRTVCKCGAVTCRGYLN” the “soluble on expression in E. coli” value was “soluble”.
With “SADEEDSLSQFDISKEETDKLVSEVIRFILFKFHQNSGTPIKREDLTQIVTKNYRQRNLATHVINEAKKKLSNVFGYDLKELQRARSSSTGQSRLPQSQSSVDSKSYVLVSELPLEVFKKHVVDETTSPVTGFTFVVLAIVQLAGGKIPEGMLLLGLLRRSFLWFRCNVLCKVVEWKSKVHYRDLFKNLKL” the “soluble on expression in E. coli” value was “soluble”.
For “SAEASSANLGSGCEEKRHEGSSSESVPPGTTISRVKLLDTMVDTFLQKLVAAGSYQRFTDCYKCFYQLQPAMTQRIYDKFIAQLQTSIREEISDIKEEGNLEAVLNALDKIVEEGKVRKEPAWCEAQRCRVQQRCSLCVQAGGQRGSEETQALPVSMAGSPSPLPGSPGAQEGGV”, the “soluble on expression in E. coli” value was “soluble”.
In the case of “SAEEKVKDEAMQIMGMFQILPRLVVFDLDYTLWPFYCECRSKREMPSMYPQAKGILSALKEKGIEMAIASRSPTSDIANTFLDKLNIKPMFVAKEIYSSWSHKTEHFQKIHTRTGVPFTAMLFFDDEDRNIKSVSKMGVTSILVGDGVTLGAFRQGLTEFTQNHNSIEKNKQVWRDKYSGKPTSSETDKD”, the “soluble on expression in E. coli” value is reported as “soluble”.
In the case of “SALIAALSVSGLPSNRFTFEGFLPAKPTARRDRLTHLAHEPRTLIFYEASHRIAECLTDLATIFGSMRIAVVARELTKIFETVLDGTLATLQTQVANDENQRKGEFVIIVQGAADQ”, the “soluble on expression in E. coli” value is reported as “not soluble”.
In the case of “SANSGEGKVVCVTGASGYIASWLVKFLLSRGYTVKASVRDPSDPKKTQHLVSLEGAKERLHLFKADLLEQGSFDSAIDGCHGVFHTASPFFNDAKDPQAELIDPAVKGTLNVLNSCAKASSVKRVVVTSSMAAVGYNGKPRTPDVTVDETWFSDPELCEASKMWYVLSKTLAEDAAWKLAKEKGLDIVTINPAMVIGPLLQPTLNTSAAAILNLINGAKTFPNLSFGWVNVKDVANAHIQAFEVPSANGRYCLVERVVHHSEIVNILRELYPNLPLPERCVDENPYVPTYQVSKDKTRSLGIDYIPLKVSIKETVESLKEKGFAQF”, the “soluble on expression in E. coli” value is reported as “soluble”.
For “SAPFDVIGPQEPILAVVGEDAELPCRLSPNVSAKGMELRWFREKVSPAVFVSREGQEQEGEEMAEYRGRVSLVEDHIAEGSVAVRIQEVKASDDGEYRCFFRQDENYEEAIVHLKVAALGSDPHISMKVQESGEIQLECTSVGWYPEPQVQWRTHRGEEFPSMSESRNPDEEGLFTVRASVIIRDSSMKNVSCCIRNLLLGQEKEVEVSIPASFFPRLT”, the “soluble on expression in E. coli” value was “not soluble”.
With “SAPSQAPSRDRAGQEDEDRWEARGDRKARKPLVEKKRRARINESLQELRLLLAGTEVQAKLENAEVLELTVRRVQGALRGRAREREQLQAEASERFAAGYIQCMHEVHTFVSTCQAIDATVSAELLNHLLESMPLREGSSFQDLLGDSLAGLPGGSGRSSWPPGGSPESPLSSPPGPGDDLCSDLEEIPEAELNRVPAEGPDLVSTSLGSLTAARRAQSVWRPW” the “soluble on expression in E. coli” value was “soluble”.
In the case of “SAQQRALPQSKETLLQSYNKRLKDDIKSIMDNFTEIIKTAKIEDETQVSRATQGEQDNYEMHVRAANIVRAGESLMKLVSDLKQFLILNDFPSVNEAIDQRNQQLRTLQEECDRKLITLRDEISIDLYELEEEYYSSRYK”, the “soluble on expression in E. coli” value is reported as “soluble”.
For “SASERIIEKTPENSKFHKHQQKNYPLMSILKFHCRLLRCVSRCFTGITISYPATKHGYTKFEKLEDPLTGYTNMKRTIILDLDETLVHATTHLPGVKHDFMVMVKMEREIMPIFVVKRPGVTEFLERLGENYKVVVFTAGLEEYASQVLDKLDKNGVISQRLYRDSCTEVNGKYVKDLSLVVGKDLRSALIVDDNPSSYSLQPENGVPIKAFVDDLKDQELLNLVEFLESCYAYEDMRDAVTDLLAN”, the “soluble on expression in E. coli” value was “soluble”.
In the case of “SASRGKTETSKLKQNLEEQLDRLMQQLQDLEECREELDTDEYEETKKETLEQLSEFNDSLKKIMSGNMTLVDELSGMQLAIQAAISQAFKTPEVIRLFAKKQPGQLRTRLAEMDRDLMVGKLERDLYTQQKVEILTALRKLGEKLTADDEAFLSANAGAILSQFEKVSTDLGSGDKILALASFEVEKTKK”, the “soluble on expression in E. coli” value is reported as “soluble”.
For “SDSASQDINLNSPNKGVLSDFMTDVPVDPGVVHRTPVVEGLTEGEEEELRAELAKVEEEIVTLRQVLAAKERHCGELKRRLGLSTLGELKQNLSRSWHDVQVSTAYVKTSEKLGEWNEKVTQSDLYKKTQETLSQAGQKTSAALSTMGSAISRKLGDMSSYSIRHSISMPVMRNSATFKSFEDRVGTIKSKVVGGRENGSDNLPPSPGSGDQTLPDHAPF”, the “soluble on expression in E. coli” value was “soluble”.
In the case of “SDYEKFLLFGDSITEFAFNTRPIEDGKDQYALGAALVNEYTRKMDILQRGFKGYTSRWALKILPEILKHESNIVMATIFLGANDACSAGPQSVPLPEFIDNIRQMVSLMKSYHIRPIIIGPGLVDREKWEKEKSEEIALGYFRTNENFAIYSDALAKLANEEKVPFVALNKAFQQEGGDAWQQLLTDGLHFSGKGYKIFHDELLKVIETFYPQYHPKNMQYKLKDWRDVLDDGSNIMS”, the “soluble on expression in E. coli” value is reported as “soluble”.
In the case of “SEAVGVAPAPAGVPEKKLLEVKESRKAAPAAPSTSMAAKWAMKKKLVGGDAGYVLEDVPHLTDYLPELPTYPNPLQDNPAYSVVKQYFVNTDDTVTQKIVVHKTSARGTHFRRAGPRQRVYFQSDEVNAAIVTCGGLCPGLNTVIRELVCGLYDMYGVTSVVGIEGGYKGFYSRNTVALTPKSVNDIHKRGGTVLGTSRGGHDTGKIVDSIKDRGINQVYIIGGDGTQKGASVIYEEVRRRGLKCSVVGVPKTIDNDIAVIDKSFGFDTAVEEAQRAINAAHVEAESAENGIGVVKLMGRNSGFIAMYATLASRDVDCCLIPESPFYLEGKGGLLEFIEKRLKDNGHMVIVVAEGAGQDLIAKSMNFVDTQDASGNKLLLDVGLWLSQKIKDHFKKKRNFPITLKYIDPTYMIRAVRSNASDNVYCTLLAHSALHGAMAGYTGFTVAPVNGRHAYIPFYRITEKQNKVVITDRMWARVLCSTNQPCFLSHEDVEHLKHDDDEHHLHNTQLLEGESSPVKDSSKCNGTAAPV”, the “soluble on expression in E. coli” value is reported as “soluble”.
With “SEEFLQRAKSKLNRSKRLEKVHVVIGPKSCDLDSLISTFTYAYFLDKVSPPGVLCLPVLNIPRTEFNYFTETRFILEELNISESFHIFRDEINLHQLNDEGKLSITLVGSSVLASEDKTLESAVVKVINPVEQSDANVEFRESSSSLVLKEILQEAPELITEQLAHRLRGSILFKWMTMESEKISEKQEEILSILEEKFPNLPPREDIINVLQETQFSAQGLSIEQTMLKDLKELSDGEIKVAISTVSMNLEVRVGMLF” the “soluble on expression in E. coli” value was “soluble”.
With “SEGSGEQPGPQPQHPGDHRIRDGDFVVLKREDVFKAVQVQRRKKVTFEKQWFYLDNVIGHSYGTAFEVTSGGSLQPKKKREEPTAETKEAGTDNRNIVDDGKSQKLTQDDIKALKDKGIKGEEIVQQLIENSTTFRDKTEFAQDKYIKKKKKKYEAIITVVKPSTRILSIMYYAREPGKINHMRYDTLAQMLTLGNIRAGNKMIVMETCAGLVLGAMMERMGGFGSIIQLYPGGGPVRAATACFGFPKSFLSGLYEFPLNKVDSLLHGTFSAKMLSSEPKDSALVEESNGTLEEKQASEQENEDSMAEAPESNHPEDQETMETISQDPEHKGPKERGSKKDYIQEKQRRQEEQRKRHLEAAALLSERNADGLIVASRFHPTPLLLSLLDFVAPSRPFVVYCQYKEPLLECYTKLRERGGVINLRLSETWLRNYQVLPDRSHPKLLMSGGGGYLLSGFTVAMDNLKADTSLKSNASTLESHETEEPAAKKRKCPESDS” the “soluble on expression in E. coli” value was “soluble”.
For “SESLRIIFAGTPDFAARHLDALLSSGHNVVGVFTQPDRPAGRGKKLMPSPVKVLAEEKGLPVFQPVSLRPQENQQLVAELQADVMVVVAYGLILPKAVLEMPRLGCINVHGSLLPRWRGAAPIQRSLWAGDAETGVTIMQMDVGLDTGDMLYKLSCPITAEDTSGTLYDKLAELGPQGLITTLKQLADGTAKPEVQDETLVTYAEKLSKEEARIDWSLSAAQLERCIRAFNPWPMSWLEIEGQPVKVWKASVIDTATNAAPGTILEANKQGIQVATGDGILNLLSLQPAGKKAMSAQDLLNSRREWFVPGNRLV”, the “soluble on expression in E. coli” value was “soluble”.
With “SESPEGAGPGEIVKDVKVPQAALNVSAHETGDMCRTPVAEEEEEVGIPIPAPGFLQVTERRRLHPLSRASCLRSPSWTKTRAEQNREKQPPSDPERQGTIVDTFLTVEEPKED” the “soluble on expression in E. coli” value was “soluble”.
In the case of “SETRGPQGAANPMDSSRSLGDLGPFPREVGRGAPLAPGARNPATAGASRSQGGGHEDRTADRALGPRAGEELDRESWVREKVLFLLHPERWLGTRGDPAREEVAGAEDLPHAGGEDHGEEPNYPSVFQREKRISGRRVAPPRDAADPPKYVLVRVEDYQVTQEVLQTSWAKGRMTTRTEEHFVTALTFRSSREGQPGERWGPAESRALQARTGASRVHAAGRRVSPSPGTWLEEIKL”, the “soluble on expression in E. coli” value is reported as “soluble”.
For “SGEEANDDKKPTTKFELERETELRFEVEASQSVQLELLTGMAEIFGTELTRNKKFTFDAGAKVAVFTWHGCSVQLSGRTEVAYVSKDTPMLLYLNTHTALEQMRRQAEKEEERGPRVMVVGPTDVGKSTVCRLLLNYAVRLGRRPTYVELDVGQGSVSIPGTMGALYIERPADVEEGFSIQAPLVYHFGSTTPGTNIKLYNKITSRLADVFNQRCEVNRRASVSGCVINTCGWVKGSGYQALVHAASAFEVDVVVVLDQERLYNELKRDLPHFVRTVLLPKSGGVVERSKDFRRECRDERIREYFYGFRGCFYPHAFNVKFSDVKIYKVGAPTIPDSCLPLGMSQEDNQLKLVPVTPGRDMVHHLLSVSTAEGTEENLSETSVAGFIVVTSVDLEHQVFTVLSPAPRPLPKNFLLIMDIRFMDLK”, the “soluble on expression in E. coli” value was “not soluble”.
In the case of “SGELLGTLSISHDVTEWHKIQQNLRDEMERRKDTEVALAQRDTILQTILDASPDSIGIFNENMVYQACNKPFVNALGISEVSDLIGKRLQDVIPVEMYTRLETSDLHALRQAEPVRYIDKVVSSDGHITWFDVVKSPFKDKA”, the “soluble on expression in E. coli” value is reported as “not soluble”.
